Data on 2 molecules can be found in patent publication US20100183544A1 (CSL, published 2010).

In experiment [1] the target is T1, IL-11R-Fc.
T1 sequence (Q64385 whole entry, species assumed, looked up): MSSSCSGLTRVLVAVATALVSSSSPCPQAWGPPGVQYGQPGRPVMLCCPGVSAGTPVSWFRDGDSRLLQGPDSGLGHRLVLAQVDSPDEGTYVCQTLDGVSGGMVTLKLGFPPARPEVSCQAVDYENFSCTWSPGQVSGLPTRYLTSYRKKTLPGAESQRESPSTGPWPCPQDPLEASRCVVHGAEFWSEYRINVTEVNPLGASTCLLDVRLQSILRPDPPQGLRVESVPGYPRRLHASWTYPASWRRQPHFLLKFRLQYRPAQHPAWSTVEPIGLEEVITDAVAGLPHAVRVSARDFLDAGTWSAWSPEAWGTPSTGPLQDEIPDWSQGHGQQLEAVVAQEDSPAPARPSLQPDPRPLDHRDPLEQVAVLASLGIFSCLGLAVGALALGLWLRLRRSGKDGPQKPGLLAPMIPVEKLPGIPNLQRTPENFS
The experiment in a line: competition ELISA on IL-11R-Fc; reference murine W147A IL-11.

The target in experiment [2] is T1, IL-11R-Fc. The experiment in a line: IL-11R binding ELISA; reference non-PEGylated mutein.
Experiment [3] deals with T2, murine IL-11R on Ba/F3 cells stably transfected with murine IL-11R/gp130 (murine, UniProt Q64385 24-432).
T2 sequence (looked up): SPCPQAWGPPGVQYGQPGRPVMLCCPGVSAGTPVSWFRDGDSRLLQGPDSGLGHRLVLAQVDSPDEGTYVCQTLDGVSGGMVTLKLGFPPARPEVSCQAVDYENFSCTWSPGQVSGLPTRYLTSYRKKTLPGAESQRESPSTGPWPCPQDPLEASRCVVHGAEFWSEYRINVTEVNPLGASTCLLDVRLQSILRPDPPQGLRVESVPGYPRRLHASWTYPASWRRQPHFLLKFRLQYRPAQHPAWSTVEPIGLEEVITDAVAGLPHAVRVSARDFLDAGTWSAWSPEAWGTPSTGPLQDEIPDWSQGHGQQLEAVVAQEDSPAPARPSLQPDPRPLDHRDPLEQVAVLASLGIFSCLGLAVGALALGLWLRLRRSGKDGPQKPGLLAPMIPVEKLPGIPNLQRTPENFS
The experiment can be described thus: cell-based or functional assay.

As for “IL-11 mutein of SEQ ID NO: 1 (murine IL-11 with AMSAG at positions 58-62 replaced by PAIDY and W147A), N-terminal His-tagged (from UniProt P47873 22-199) (ligand)”, the fold higher binding affinity than murine W147A IL-11 in the experiment with IL-11R-Fc [1] worked out at 20 fold.

B1: PEGylated IL-11 mutein (SEQ ID NO: 3 with a single 40 kDa PEG on the Cys at position 147) (ligand)
chain: VSSDPRADLDSAVLLTRSLLADTRQLAAQMRDKFPADGDHSLDSLPTLPAIDYTLGSLQLPGVLTRLRVDLMSYLRHVQWLRRAGGPSLKTLEPELGALQARLERLLRRLQLLMSRLALPQAAPDQPVIPLGPPASACGSIRAAHAILGGLHLTLDWAVRGLLLLKTRL
modifications: mPEG2-maleimide (single 40 kDa PEG moiety) on the Cys residue introduced at position 147 (mature murine IL-11 numbering)
Take B1: the fold reduction of IL-11R binding affinity relative to non-PEGylated mutein with IL-11R-Fc [2] stood at 5 fold. The “fold reduction against non-PEGylated mutein in antagonism of IL-11-induced Ba/F3 cell proliferation” value in experiment [3] is roughly 10 fold.
